Source: patent US20050187175A1 (published 2005)

Target: the molecule itself
Assay: non-reducing SDS-PAGE of whole cell extracts of transfected HEK293T cells

B1: CPG15-2 (other)
chain: SEGPNRCDTIYQGFAECLIRLGDGMGRGGELQTVCRSWNDFHACASRVLSGCPEEAAAVWESLQQEARRAPHPDNLHILCGAPVSVRERIAGPETNQETLRATA
notes: also called mouse CPG15-2
B1: binds.
